{"source": "patent US9217013B2", "about": "“Treatment of amyloidoses using myelin basic protein and fragments thereof” (The Research Foundation for the State University of New York, priority 2008, dated 2015)", "molecules": {"B1": {"name": "myelin basic protein (protein)", "chain": "ASQKRPSQRHGSKYLATASTMDHARHGFLPRHRDTGILDSIGRFFGGDRGAPKRGSGKDSHHPARTAHYGSLPQKSHGRTQDENPVVHFFKNIVTPRTPPPSQGKGRGLSLSRFSWGAEGQRPGFGYGGRASDYKSAHKGFKGVDAQGTLSKIFKLGGRDSRSGSPMARR", "notes": "myelin basic protein, major form about 18.5 Kd (170 residues); purified protein"}}, "key": {"wild-type Aβ40 (Aβ40WT)": {"target": "wild-type Aβ40 (Aβ40WT) (Homo sapiens, UniProt P05067)", "assay": "Surface plasmon resonance binding to wild-type Aβ40", "details": "compared with CAA mutant Aβ40", "description": "All runs were performed on a Biacore 2000 instrument using 10 mM HEPES (pH 7.4), 150 mM NaCl, 3 mM EDTA, and 0.005% (v/v) Tween 20 as running buffer and diluent. Streptavidiri was conjugated to the surface of three flow cells of a CM5 chip at 10 μl/min using amine coupling chemistry to a final average response level of 1890.2 response units. N-terminally biotinylated Aβ peptides were resuspended in Me2SO to 2.5 mM and serially diluted to 13 nM immediately before application. Biotinylated Aβ40WT and Aβ40DI were bound to individual flow cells at 10 μl/min to achieve an average relative response level of 157.1 response units, leaving flow cell 1 as reference. […] The resultant Rmax of these surfaces was ˜700 response units with MBP as analyte. Purified MBP was passed over all four flow cells at 5, 10, 25, 50, and 100 nM at a flow rate of 30 μl/min for kinetic measurements. […] Surfaces were regenerated with 0.2 M glycine (pH 2.0) and 150 mM NaCl between runs. The resulting sensorgrams were analyzed by BIAanalysis software. Triplicate concentration series were used for each surface."}, "wild-type Aβ42": {"target": "wild-type Aβ42 (Homo sapiens, UniProt P05067)", "assay": "Thioflavin T fluorescence assay of Aβ42 fibril formation", "assay_type": "biochemical", "details": "12.5 μM Aβ42, 1.56 μM MBP", "description": "FIG. 19 Thioflavin T analysis for inhibition of Aβ42 fibril formation by MBP. Aβ42 at a concentration of 12.5 μM in PBS in the absence (diamond) or presence of 1.56 μM MBP (triangle) or 1.56 μM […]-lactalbumin (square) as control. The data shown are the mean S.D. of triplicate samples.\nThe Aβ B binding properties of the exemplary fragments of MBP described herein were determined in a thioflavin T fluorescence assay as follows: Lyophilized Aβ peptides were first resuspended with Me2SO to 2.5 mM, diluted to 12.5 μM in PBS, and then incubated at 37° C. with rocking either alone or with 1.56 μM MBP or bovine α-lactalbumin. Control samples containing 0.5% Me2SO and 1.56 μM MBP or lactalbumin in PBS were also included. At each time point, 100 μl samples of each reaction were placed in a 96-well microplate in triplicate, and 5 μl of 100 µM thioflavin T was added. The plate was mixed and incubated at 22° C. in the dark for 10 min. Fluorescence was measured at 490 nm with an excitation wavelength of 446 nm in a SpectraMax spectrofluorometer (Molecular Devices, Sunnyvale, Calif.) using SoftMax Pro control software. It is apparent that the method enables persons of skill in the art to determine the binding properties of MBP, variants thereof, and fragments thereof for any Aβ-peptide, including mutants thereof."}, "Aβ40WT [1]": {"target": "T1, Aβ40WT (Homo sapiens, UniProt P05067)", "assay": "Co-immunoprecipitation of MBP with Aβ40WT", "assay_type": "binding", "details": "purified MBP", "description": "(§1) AP peptides were resuspended in Me2SO to 2.5 mM and used at 10.8 μM. MBP was used at 1.56 μM. Proteins were combined in 250 μl of incubation buffer (PBS, 0.05% Tween 20, and 1% BSA). Anti-MBP mAb 382 was added to each sample mixture and incubated for 1 h at 4° C. with rocking. After incubation, 20 μl of washed GammaBind protein G-Sepharose beads (Amersham Biosciences) were added to each mixture, followed by incubation for an additional 1 h at 4° C. with rocking. Beads were separated by centrifugation at 8000×g for 2 min. Supernatants were removed, and beads were washed with 1 ml of incubation buffer. Separation and washing were repeated three times. A final wash was performed in PBS and 0.05% Tween 20 to remove excess BSA. Centrifuged beads were combined with 25 μl of reducing SDS-PAGE loading buffer and heated as described above. 10 μl of each sample/loading buffer mixture was loaded onto 10-20% Tricine gels (Invitrogen) and electrophoresed at 125 V for 35 min. Immunoblotting was carried out as described above using either biotinylated anti-MBP mAb 384 or biotinylated anti-Aβ mAb 3D6 as primary antibody. Experiments were performed in triplicate."}, "Aβ40DI [2]": {"target": "T2, Aβ40DI (Homo sapiens, UniProt P05067, D694N/E693Q)", "assay": "Co-immunoprecipitation of MBP with Aβ40DI", "assay_type": "binding", "details": "purified MBP", "description": "as §1"}, "Aβ40WT [3]": {"target": "T1, Aβ40WT", "assay": "Affinity chromatography of human brain homogenate on Aβ40WT column", "assay_type": "binding", "description": "(§2) For some embodiments of the invention, it may be advantageous to work with purified isolates of mutant and wild-type forms of Aβ. The affinity chromatography method used in the development of embodiments of the instant invention to obtain such isolates is exemplary: To prepare affinity resins, biotinylated wild-type Aβ40 peptide (Aβ40WT) and Aβ40DI were each redissolved in 20 mM NaHCO3 buffer (pH 8.5) and applied to ImmunoPure immobilized streptavidin beads (Pierce) following the manufacturer's instructions. Immobilized ligands were cross-linked with 2 mM bis(sulfosuccinimidyl) suberate (Pierce) for 30 min with rocking at room temperature in 20 mM NaHCO3 (pH 8.5). Crosslinking reactions were stopped by the addition of 1 M Tris-HCl (pH 7.4) to a final concentration of 20 mM. Homogenates of normal human brain frontal cortex (which may obtained as biopsies) were prepared in Tris-buffered saline (50 mM Tris-HCl and 200 mM NaCl (pH 7.4)) containing complete protease inhibitor cocktail (Roche). Homogenates were centrifuged at 12,000×g for 30 min, and supernatants were loaded onto Tris-buffered saline-equilibrated affinity columns (0.8×4 cm) under gravity flow. […] Fractions were analyzed by SDS-PAGE on 10-20% Tris/glycine gradient gels. […]"}, "Aβ40DI [4]": {"target": "T2, Aβ40DI", "assay": "Affinity chromatography of human brain homogenate on Aβ40DI column", "assay_type": "binding", "description": "as §2"}}, "note": "Entries after “also recorded” stand apart in the source; their conditions may differ."}
{"molecule": "B1", "values": [{"measurement": "binding to wild-type Aβ40", "setting": "wild-type Aβ40 (Aβ40WT)", "result": "Significantly weaker binding"}, {"measurement": "inhibition of wild-type Aβ42 fibrillogenesis (thioflavin T)", "setting": "wild-type Aβ42", "result": "prevents fibrillization; also recorded: inhibited"}, {"measurement": "binding by immunoprecipitation", "setting": "Aβ40WT [1]", "result": "bound"}, {"measurement": "preference for Aβ40DI over Aβ40WT by immunoprecipitation", "setting": "Aβ40DI [2]", "result": "showed no preference"}, {"measurement": "capture on Aβ40WT affinity column", "setting": "Aβ40WT [3]", "result": "not captured"}, {"measurement": "capture on Aβ40DI affinity column", "setting": "Aβ40DI [4]", "result": "captured; also recorded: preferentially binds"}]}
